# Experimental data from the RNAGym collection of RNA variant scans (doi:10.1073/pnas.2313332121).
# This sample holds only a part of the variants without activity.
# B1: TPR 5TU (parent)
# chain: GGAUCUUCUCGAUCUAACAAAAAAGACAAAUCUGCCACAAAGCUUGAGAGCAUCUUCGGAUGCAGAGGCGGCAGCCUUCGGUGGCGCGAUAGCGCCAACGUUCUCAACUAUGACACGCAAAACGCGUGCUCCGUUGAAUGGAGUUUAUCAUG
# Variants of: B1
# Test: polymerase ribozyme fitness, log enrichment relative to wild type (log ratio); higher = more active; in vitro selection for triplet polymerase activity
# Summary of the method: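 The heterodimeric triplet polymerase ribozyme's subunits were each mutagenized into PCR-built libraries and transcribed. Every library was selected once, in triplicate, by annealing with a biotinylated primer, the partner subunit and triplets, incubating frozen at −7 °C, gel-excising extended constructs, capturing on streptavidin beads and running RT-PCR. Input and output libraries were Illumina-sequenced, with genotypes kept only at ≥10 input reads and ≥1 read per output. Fitness, from inverse-variance-weighted replicate averages, is the base-2 logarithm of genotype enrichment over wild-type enrichment.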
row,Variant,polymerase ribozyme fitness (log ratio)
1,U6G C85A,-1.09
2,U7A A17C A142C,-3.31
3,C8A A17G U55A C93A G126U G140A,≤ -4.2
4,U7C C18U U31A G81A G84U,-3.99
5,U7A A26C U31A G34C G70U U78G G117A C118U A119C,≤ -4.2
6,U7A C14G U45A G50A C57A G71C A110U G112U C125G C132U,≤ -4.2
7,U6G G100A A107U A113U,≤ -4.2
8,U6G C27U A49C C79G A89U C93U C132A,≤ -4.2
9,U6G A22C C35A G58C G74U C76U U78C G133U U151C,≤ -4.2
10,U6G U53A,-0.949
11,U7G A30C C32G C51U U144A,≤ -4.2
12,U6G U134C,-0.128
13,U7A A60G C85U U144C,-3.61
14,U6G A122C,-0.304
15,U7C G50A G84U C87A U151A,≤ -4.2
16,U6G G59C C85U G92U U127A,≤ -4.2
17,U6G C75U,0.374
18,C8A A17C A26C A40C C87U U144G,≤ -4.2
19,U6G G34C A52U A89G C93A A107U A115U A150C,≤ -4.2
20,U6G C10A A16G A20C U53A C54G A64U C85U G86A A113U U145C,≤ -4.2
21,U7G A21C C36U C54U C79G G83A U144A,≤ -4.2

row,Variant,polymerase ribozyme fitness (log ratio)
1,U6G C93A,-1.75
2,U6G C93G,-3.18
3,U6G A20U A41U U44A U55G G83A G88U A98U A121G U145A,≤ -4.2
4,U7A C43U A49G A110G,≤ -4.2
5,U6G A28U C72U C87A,≤ -4.2
6,U7G C10A C51A U82G G88A C108U U111C G133U G143C,≤ -4.2
7,U7C A73G U82A G136C,≤ -4.2
8,U6G G65U G71C G94A C103G A122G,≤ -4.2
9,U7A G94A,-3.07
10,U7C G46C U56A U77C G81A G86U G100A G133U,≤ -4.2
11,U7G A23G,≤ -4.2
12,U7G G50C G58U C63U C76A G92A C149G,≤ -4.2
13,U6G C8G A47C G59U A91C C96G C132G G133A,≤ -4.2
14,U6G A12U A23G C38A G83U U90G C95A,≤ -4.2
15,U7C A12G C96U,-2.17
16,U6G U9C A12C U45A C76G A91C C96G,≤ -4.2
17,C8A A16C C18G A49C C95U A98G A142U,≤ -4.2
18,U6G U31C G50A A147C,-2.65
19,U7A U111G,-4.19
20,U6G G141A,0.243
21,U7G G83A A91U C131U,-3.4

row,Variant,polymerase ribozyme fitness (log ratio)
1,U7C C38A C51G G83U G84A,≤ -4.2
2,C8A A26U A37C G59A C93U,≤ -4.2
3,U6G C51U G84A U146G,-1.28
4,C8A A47G A49G A52C U55A G88U U104A A119U U146C U148A,≤ -4.2
5,U7G A20C A40C G48U A64U A89U G92U U101C C132A,≤ -4.2
6,U7G A12G C18G C32U G94C A115U,≤ -4.2
7,U7C G46A G65U C76A U77G C79A G94A C96A U135A U144G G152U,≤ -4.2
8,U6G C35U C75A A98G A121U,≤ -4.2
9,U6G C57G C85U A98U,-1.17
10,C8A A12U U61A C79U G84U C85G C118U A119G C129A G143C U148G,≤ -4.2
11,U6G A40U A49U A66C G94U A98U U134C G140A,≤ -4.2
12,U7C A19C C57G C85U C96U U148A,≤ -4.2
13,U7A A20U U31G C116U,-3.58
14,U7C C27U C38U C54G A64G C75U C85A C96U C105G C114U,≤ -4.2
15,U6G A41C A49G C95G,-2.03
16,U6G G46A U56C C76G G81C A91C A106G A137U U144C U151A,≤ -4.2
17,U7G G11C U33C A64U C96A A122G G124A G140U,≤ -4.2
18,U6G A23U A73G C76A A98G C105G A113C A119G,≤ -4.2
19,U7A C14U U31A C57G U61A A89U U90C C99A A115U A122C,≤ -4.2
20,U6G A16C A22U C51U C76U C85A C118U,-3.97
21,U7C C10U U55A G62A G65C U78G C96A,≤ -4.2

row,Variant,polymerase ribozyme fitness (log ratio)
1,U7G U53A A147G,≤ -4.2
2,U7G U130A,-4.18
3,U7A U55A C85U C114A G136C,≤ -4.2
4,U6G A12U A20U C51A C96A G100U C118A U148C,≤ -4.2
5,C8A A12G A17G U56A A97U A147C,≤ -4.2
6,U6G U13G C57G,-2.26
7,U6G A26G A29C A47U C63U G84A G136U G143C U151A,≤ -4.2
8,U6G A20U C93A C116A U135A,-3.29
9,U7A A121U A138G,≤ -4.2
10,U6G A22U A40G C57A G94A,-2.43
11,U7C A12C C87A C105A C116G A138U G152U,≤ -4.2
12,U6G A26C G136A A142U U146A,≤ -4.2
13,U7A A28U A40U U55A C57A C76U U78G C96G C123G,≤ -4.2
14,U7G A40U A66C G81C A120G U146G,≤ -4.2
15,C8A A12U C35G G92U C103G,-3.99
16,U6G A41C G42A U56C C85A C99A,≤ -4.2
17,U7A A29U C35U A66C U82G A113U,-3.86
18,C8A A19G C57G G88A U146G,≤ -4.2
19,U7A A73G C87G C131A,≤ -4.2
20,U6G C14U,-1.09
